Tests used:
[1] = biological target: T1, API5(Apoptosis inhibitor protein 5) 단백질, Expi293 세포에서 일시발현 후 정제 (human, UniProt Q9BZZ5-2 1-504); experiment: ELISA, 3F2 serially diluted 3.125-200 nM (8 points including 0 nM)
T1 construct: also called rhAPI5; AAC-11
T1 sequence: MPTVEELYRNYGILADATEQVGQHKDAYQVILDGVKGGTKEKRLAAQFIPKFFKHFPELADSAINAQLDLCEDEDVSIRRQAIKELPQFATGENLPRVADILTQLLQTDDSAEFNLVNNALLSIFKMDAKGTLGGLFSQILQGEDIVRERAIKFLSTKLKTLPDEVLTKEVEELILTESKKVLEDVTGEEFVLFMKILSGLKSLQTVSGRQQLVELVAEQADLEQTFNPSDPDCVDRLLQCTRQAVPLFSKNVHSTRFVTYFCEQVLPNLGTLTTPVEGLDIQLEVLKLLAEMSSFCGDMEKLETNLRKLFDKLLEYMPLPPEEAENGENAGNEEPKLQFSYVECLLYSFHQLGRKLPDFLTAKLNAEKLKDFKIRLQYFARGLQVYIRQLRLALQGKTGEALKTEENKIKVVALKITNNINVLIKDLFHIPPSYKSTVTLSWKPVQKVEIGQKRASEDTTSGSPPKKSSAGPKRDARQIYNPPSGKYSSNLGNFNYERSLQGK

[2] = biological target: T1, API5(Apoptosis inhibitor protein 5) …; experiment: SPR, Biacore T200, 3F2 serially diluted 3.125-100 nM (7 points including 0 nM)

B1: 3F2 항체 (API5 표적 인간 항체 3F2) (antibody, V domains shown)
VH: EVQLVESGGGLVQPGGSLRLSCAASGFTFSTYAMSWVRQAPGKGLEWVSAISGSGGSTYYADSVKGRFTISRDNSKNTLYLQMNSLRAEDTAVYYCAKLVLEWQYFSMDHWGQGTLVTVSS
VL: DIQMTQSPSSLSASVGDRVTITCRASQSISRYLNWYQQKPGKAPKLLIYAASTLQSGVPSRFSGSGSGTDFTLTISSLQPEDFATYYCQQSYSFPWTFGQGTKVEIK
notes: Purified 3F2 antibody as used in the ELISA and SPR; IgG is used as the control in later experiments; also called API5 항체 3F2; 3F2 antibody
[1]
  Kd: 1.2 nM
[2]
  Kd: 4.62 nM
